B1: Id_ii_S2_P5E.2_K5.1_C5.2_H5.1_A5.1_F5.1_T5.2_[T11A] (ssRNA)
RNA: UUUGAUUAAUAUGAUAUCGUUCUUUCUCUUGUAUUAUUAAAUUCUUUCUCGAUAUCAUAUUAAUCUUU
B2: Id_ii_S2_P5E.3_K5.2_C5.2_[C-2G]_[T-1C]_H5.2_A5.1_F5.1_T5.2_[T11C]_[A12G] (ssRNA)
RNA: B1 RNA with C28G, U29C, G31A, A40C, A41G
B3: Id_ii_S2_P5E.3_K5.2_C5.2_[C-2G]_[T-1C]_H5.2_A5.1_F5.1_T5.2_[T11C]_[A12C] (ssRNA)
RNA: B1 RNA with C28G, U29C, G31A, A40C, A41C
B4: Id_ii_S2_P5E.3_K5.2_C5.2_[C-2T]_[T-1C]_H5.2_A5.1_F5.1_T5.2_[T11C]_[A12C] (ssRNA)
RNA: B1 RNA with C28U, U29C, G31A, A40C, A41C
B5: Id_ii_S2_P5E.3_K5.2_C5.2_[C-2T]_[T-1A]_H5.2_A5.1_F5.1_T5.2_[A12C] (ssRNA)
RNA: B1 RNA with C28U, U29A, G31A, A40U, A41C
B6: Id_ii_S2_P5E.3_K5.2_C5.2_[C-2T]_[T-1A]_H5.2_A5.1_F5.1_T5.2_[T11A]_[A12C] (ssRNA)
RNA: B1 RNA with C28U, U29A, G31A, A41C
B7: Id_ii_S2_P5E.3_K5.2_C5.2_[C-2T]_[T-1C]_H5.2_A5.1_F5.1_T5.2_[T11A] (ssRNA)
RNA: B1 RNA with C28U, U29C, G31A
B8: Id_ii_S2_P5E.3_K5.2_C5.2_[C-2G]_H5.2_A5.1_F5.1_T5.2_[A12C] (ssRNA)
RNA: B1 RNA with C28G, G31A, A40U, A41C
B9: Id_ii_S2_P5E.3_K5.2_C5.2_[C-2T]_[T-1C]_H5.2_A5.1_F5.1_T5.2_[T11A]_[A12G] (ssRNA)
RNA: B1 RNA with C28U, U29C, G31A, A41G
B10: Id_ii_S2_P5E.3_K5.2_C5.2_[C-2T]_[T-1G]_H5.2_A5.1_F5.1_T5.2_[T11G]_[A12T] (ssRNA)
RNA: B1 RNA with C28U, U29G, G31A, A40G, A41U
B11: Id_ii_S2_P5E.3_K5.2_C5.2_[C-2T]_[T-1C]_H5.2_A5.1_F5.1_T5.2_[T11C]_[A12G] (ssRNA)
RNA: B1 RNA with C28U, U29C, G31A, A40C, A41G
B12: Id_ii_S2_P5E.3_K5.2_C5.2_[C-2T]_H5.2_A5.1_F5.1_T5.2_[T11G]_[A12C] (ssRNA)
RNA: B1 RNA with C28U, G31A, A40G, A41C
B13: Id_ii_S2_P5E.2_K5.1_C5.2_H5.1_A5.1_F5.1_T5.2_[A12T] (ssRNA)
RNA: B1 RNA with A40U, A41U
B14: Id_ii_S2_P5E.3_K5.2_C5.2_[C-2G]_[T-1C]_H5.2_A5.1_F5.1_T5.2_[A12T] (ssRNA)
RNA: B1 RNA with C28G, U29C, G31A, A40U, A41U
B15: Id_ii_S2_P5E.3_K5.2_C5.2_[C-2T]_[T-1A]_H5.2_A5.1_F5.1_T5.2_[T11C] (ssRNA)
RNA: B1 RNA with C28U, U29A, G31A, A40C
B16: Id_ii_S2_P5E.3_K5.2_C5.2_[C-2T]_[T-1A]_H5.2_A5.1_F5.1_T5.2_[T11A] (ssRNA)
RNA: B1 RNA with C28U, U29A, G31A
B17: Id_ii_S2_P5E.3_K5.2_C5.2_[C-2T]_[T-1G]_H5.2_A5.1_F5.1_T5.2_[T11G]_[A12C] (ssRNA)
RNA: B1 RNA with C28U, U29G, G31A, A40G, A41C
B18: Id_ii_S2_P5E.3_K5.2_C5.2_[C-2G]_[T-1C]_H5.2_A5.1_F5.1_T5.2_[T11A]_[A12C] (ssRNA)
RNA: B1 RNA with C28G, U29C, G31A, A41C
B19: Id_ii_S2_P5E.3_K5.2_C5.2_[C-2T]_[T-1G]_H5.2_A5.1_F5.1_T5.2_[T11A]_[A12C] (ssRNA)
RNA: B1 RNA with C28U, U29G, G31A, A41C
B20: Id_ii_S2_P5E.3_K5.2_C5.2_[C-2T]_[T-1C]_H5.2_A5.1_F5.1_T5.2_[T11C] (ssRNA)
RNA: B1 RNA with C28U, U29C, G31A, A40C
B21: Id_ii_S2_P5E.3_K5.2_C5.2_[C-2T]_[T-1G]_H5.2_A5.1_F5.1_T5.2_[T11A]_[A12T] (ssRNA)
RNA: B1 RNA with C28U, U29G, G31A, A41U
B22: Id_ii_S2_P5E.3_K5.2_C5.2_[C-2G]_[T-1C]_H5.2_A5.1_F5.1_T5.2_[T11C]_[A12T] (ssRNA)
RNA: B1 RNA with C28G, U29C, G31A, A40C, A41U

Changes are numbered by the printed parent chain. Names and notes keep the numbering of the source.

This data set addresses T1, PUF4 RNA-binding domain (Saccharomyces cerevisiae, UniProt P25339 537-888).
T1 sequence: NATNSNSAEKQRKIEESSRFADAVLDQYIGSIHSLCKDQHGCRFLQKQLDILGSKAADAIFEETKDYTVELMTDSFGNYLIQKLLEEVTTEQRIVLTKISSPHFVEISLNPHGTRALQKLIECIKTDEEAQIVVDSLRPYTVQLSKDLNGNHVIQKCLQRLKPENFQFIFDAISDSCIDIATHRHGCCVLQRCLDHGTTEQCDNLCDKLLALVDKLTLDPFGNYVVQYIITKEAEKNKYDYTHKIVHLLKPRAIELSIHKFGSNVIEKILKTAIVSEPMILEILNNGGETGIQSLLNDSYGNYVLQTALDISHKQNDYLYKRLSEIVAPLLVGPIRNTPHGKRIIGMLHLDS
Description: Mg; RNA-MaP; 20 mM Na-HEPES pH 7.4, 30 mM KOAc, 0.75 mM MgCl2, 0.1% Tween-20, 5% glycerol, 0.1 mg/mL BSA, 2 mM DTT; 25 C; 0.0125-409.6 nM protein. The conditions noted are these: tags: N-His6-TEV cleaved; C-SNAP kept, Cy3B-labelled; label: tethered on chip by stalled RNA polymerase.
The Kd is the constant that tells how readily two partners part at equilibrium. Molecule UCUCUUUGUAUUUGUAUCUCUU (ssRNA) [Ib_S1_P5E.1_K5.1_C5.1_H5.1_A5.1_[A7T]_F5.1_[T8G]_T5.1] registered an equilibrium dissociation constant (Kd) of 10.1 nM. The value for UCUCUUUGUAUAAAUAUCUCUU (ssRNA) [Ib_S1_P5E.1_K5.1_C5.1_H5.1_A5.1_[T6A]_F5.1_[T8A]_T5.1] was 11.7 nM. The value for UCUCUUUGUAUUGGUAUCUCUU (ssRNA) [Ic_S1_P5E.1_K5.1_C5.1_H5.1_A5.1_[A7G]_F5.1_[T8G]_T5.1] was 37.5 nM; that for UCUCUUUGUAUUGCUAUCUCUU (ssRNA) [Ib_S1_P5E.1_K5.1_C5.1_H5.1_A5.1_[A7G]_F5.1_[T8C]_T5.1] was 15.4 nM; that for B1 was 3.44 nM. The value for B2 was 635 nM. B3 returned a dissociation constant Kd of 133 nM. As for B4, the Kd is 65.6 nM. With B5 the figure was 10.7 nM; with B6, 9.27 nM. The value for B7 was 220 nM; that for B8 was 16 nM; that for B9 was more than 2300 nM.

B10 showed a Kd of 0.685 nM.

For the molecule B11, the Kd was 419 nM.

The molecule B12 came in with a Kd of 219 nM. This Kd lies about 1.9-fold lower than the previous one.

Consider B13, for which the Kd was 1.19 nM. With B14 the figure was 92.5 nM; with B15, 14.5 nM; with B16, 22.6 nM. The value for B17 was 0.514 nM; that for B18 was 381 nM. Molecule B19 had a Kd of 0.571 nM.

The molecule B20 registered a Kd of 179 nM. The value for B21 was 0.37 nM; that for B22 was 161 nM.
